Reference: US20240270846A1 (published 2024)

Target: T1, CD3 epsilon homodimer protein (UniProt P07766 23-126)
T1 construct: Construct of the homodimer protein is not described; also called CD3 (CD3 epsilon)
Experiment: SPR (Biacore T200), CD3 epsilon homodimer on CM4 chip, one-arm antibody as analyte; ratio to unaltered CE115HA000;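 note: surface plasmon resonance run at 25 °C with HBS-EP+ as running buffer, CD3 epsilon homodimer attached by amine coupling, antibody passed over as analyte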

T1 sequence (P07766 23-126): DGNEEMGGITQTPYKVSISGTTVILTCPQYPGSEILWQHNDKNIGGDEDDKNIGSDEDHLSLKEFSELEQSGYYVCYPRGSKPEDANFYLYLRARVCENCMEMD

KD ratio (KD value of CE115HA000/KD value of the altered form)	Binder
4.61	CE115HA000 V95S one-arm antibody (antibody, human IgG1, kappa, L234A L235A, N297A, name in Kabat numbering, one-arm antibody) heavy: QVQLVESGGGVVQPGRSLRLSCAASGFTFSNAWMHWVRQAPGKGLEWVAQIKAKSNNYATYYAESVKGRFTISRDDSKNSLYLQMNSLKTEDTAVYYCRYSHYGAYYGVDAWGQGTTVTVSSASTKGPSVFPLAPSSKSTSGGTAALGCLVKDYFPEPVTVSWNSGALTSGVHTFPAVLQSSGLYSLSSVVTVPSSSLGTQTYICNVNHKPSNTKVDKKVEPKSCDKTHTCPPCPAPEAAGGPSVFLFPPKPKDTLMISRTPEVTCVVVDVSHEDPEVKFNWYVDGVEVHNAKTKPREEQYASTYRVVSVLTVLHQDWLNGKEYKCKVSNKALPAPIEKTISKAKGQPREPQVYTLPPSRCELTKNQVSLSCAVKGFYPSDIAVEWESNGQPENNYKTTPPVLDSDGSFFLVSKLTVDKSRWQQGNVFSCSVMHEALHNHYTQKSLSLSPDYKDDDDK EPKSSDKTHTCPPCPAPELLGGPSVFLFPPKPKDTLMISRTPEVTCVVVDVSHEDPEVKFNWYVDGVEVHNAKTKPREEQYNSTYRVVSVLTVLHQDWLNGKEYKCKVSNKALPAPIEKTISKAKGQPREPQVCTLPPSRDELTKNQVSLWCLVKGFYPSDIAVEWESNGQPENNYKTTPPVLDSDGSFFLYSKLTVDKSRWQQGNVFSCSVMHEALHNRYTQKSLSLSP light: DIVMTQSPLSLPVTPGEPASISCRSSQSLVHSNRNTYLHWYQQKPGQAPRLLIYKVSNRFSGVPDRFSGSGSGTDFTLKISRVEAEDVGVYYCGQGTQVPYTFGQGTKLEIKRTVAAPSVFIFPPSDEQLKSGTASVVCLLNNFYPREAKVQWKVDNALQSGNSQESVTEQDSKDSTYSLSSTLTLSKADYEKHKVYACEVTHQGLSSPVTKSFNRGEC
1.64	CE115HA000 V100cD one-arm antibody (antibody, human IgG1, kappa, L234A L235A, N297A, name in Kabat numbering, one-arm antibody) heavy: QVQLVESGGGVVQPGRSLRLSCAASGFTFSNAWMHWVRQAPGKGLEWVAQIKAKSNNYATYYAESVKGRFTISRDDSKNSLYLQMNSLKTEDTAVYYCRYVHYGAYYGDDAWGQGTTVTVSSASTKGPSVFPLAPSSKSTSGGTAALGCLVKDYFPEPVTVSWNSGALTSGVHTFPAVLQSSGLYSLSSVVTVPSSSLGTQTYICNVNHKPSNTKVDKKVEPKSCDKTHTCPPCPAPEAAGGPSVFLFPPKPKDTLMISRTPEVTCVVVDVSHEDPEVKFNWYVDGVEVHNAKTKPREEQYASTYRVVSVLTVLHQDWLNGKEYKCKVSNKALPAPIEKTISKAKGQPREPQVYTLPPSRCELTKNQVSLSCAVKGFYPSDIAVEWESNGQPENNYKTTPPVLDSDGSFFLVSKLTVDKSRWQQGNVFSCSVMHEALHNHYTQKSLSLSPDYKDDDDK EPKSSDKTHTCPPCPAPELLGGPSVFLFPPKPKDTLMISRTPEVTCVVVDVSHEDPEVKFNWYVDGVEVHNAKTKPREEQYNSTYRVVSVLTVLHQDWLNGKEYKCKVSNKALPAPIEKTISKAKGQPREPQVCTLPPSRDELTKNQVSLWCLVKGFYPSDIAVEWESNGQPENNYKTTPPVLDSDGSFFLYSKLTVDKSRWQQGNVFSCSVMHEALHNRYTQKSLSLSP light: DIVMTQSPLSLPVTPGEPASISCRSSQSLVHSNRNTYLHWYQQKPGQAPRLLIYKVSNRFSGVPDRFSGSGSGTDFTLKISRVEAEDVGVYYCGQGTQVPYTFGQGTKLEIKRTVAAPSVFIFPPSDEQLKSGTASVVCLLNNFYPREAKVQWKVDNALQSGNSQESVTEQDSKDSTYSLSSTLTLSKADYEKHKVYACEVTHQGLSSPVTKSFNRGEC
